What was measured:
Type in all cases: biochemical
[1] = ω-transaminase enzyme activity assay, reverse direction (6-aminohexanoate to adipate semialdehyde); settings: cell free extract, 10 mM 6-aminohexanoate, 10 mM pyruvate, pH 7.5, 25° C., 24 h, RP-HPLC, against the empty vector control
Description: (§1) A nucleotide sequence encoding a His-tag was added to the genes from Chromobacterium violaceum, Pseudomonas aeruginosa, Pseudomonas syringae, Rhodobacter sphaeroides, and Vibrio Fluvialis encoding the ω-transaminases of SEQ ID NOs: 8, 9, 10, 11 and 13, respectively (see FIG. 20E and FIG. 20F) such that N-terminal HIS tagged ω-transaminases could be produced. Each of the resulting modified genes was cloned into a pET21a expression vector under control of the T7 promoter and each expression vector was transformed into a BL21[DE3] E. coli host. The resulting recombinant E. coli strains were cultivated at 37° C. in a 250 mL shake flask culture containing 50 mL LB media and antibiotic selection pressure, with shaking at 230 rpm. Each culture was induced overnight at 16° C. using 1 mM IPTG.
(§2) The pellet from each induced shake flask culture was harvested via centrifugation. Each pellet was resuspended and lysed via sonication. The cell debris was separated from the supernatant via centrifugation and the cell free extract was used immediately in enzyme activity assays.
Enzyme activity assays in the reverse direction (i.e., 6-aminohexanoate to adipate semialdehyde) were performed in a buffer composed of a final concentration of 50 mM HEPES buffer (pH=7.5), 10 mM 6-aminohexanoate, 10 mM pyruvate and 100 μM pyridoxyl 5′ phosphate. Each enzyme activity assay reaction was initiated by adding cell free extract of the ω-transaminase gene product or the empty vector control to the assay buffer containing the 6-aminohexanoate and incubated at 25° C. for 24 h, with shaking at 250 rpm. The formation of L-alanine from pyruvate was quantified via RP-HPLC.

[2] = ω-transaminase enzyme activity assay, forward direction (adipate semialdehyde to 6-aminohexanoate); settings: cell free extract, 10 mM adipate semialdehyde, 10 mM L-alanine, pH 7.5, 25° C., 4 h, RP-HPLC, against the empty vector control
Description: as §1, §2
Enzyme activity in the forward direction (i.e., adipate semialdehyde to 6-aminohexanoate) was confirmed for the transaminases of SEQ ID NO 8, SEQ ID NO 9, SEQ ID NO 10, SEQ ID NO 11 and SEQ ID NO 13. Enzyme activity assays were performed in a buffer composed of a final concentration of 50 mM HEPES buffer (pH=7.5), 10 mM adipate semialdehyde, 10 mM L-alanine and 100 μM pyridoxyl 5′ phosphate. Each enzyme activity assay reaction was initiated by adding a cell free extract of the ω-transaminase gene product or the empty vector control to the assay buffer containing the adipate semialdehyde and incubated at 25° C. for 4 h, with shaking at 250 rpm. The formation of pyruvate was quantified via RP-HPLC.

[3] = carboxylate reductase enzyme activity assay (adipate semialdehyde to hexanedial); settings: purified enzyme enhanced by the gene product of sfp, 2 mM adipate semialdehyde, pH 7.5, room temperature, 20 min, against the empty vector control
Description: The N-terminal His-tagged carboxylate reductase of SEQ ID NO 7 (see Example 2 and FIG. 20E) was assayed using adipate semialdehyde as substrate. The enzyme activity assay was performed in triplicate in a buffer composed of a final concentration of 50 mM HEPES buffer (pH=7.5), 2 mM adipate semialdehyde, 10 mM MgCl2, 1 mM ATP and 1 mM NADPH. The enzyme activity assay reaction was initiated by adding purified carboxylate reductase and phosphopantetheine transferase or the empty vector control to the assay buffer containing the adipate semialdehyde and then incubated at room temperature for 20 min. The consumption of NADPH was monitored by absorbance at 340 nm.

| Molecule | ω-transaminase activity: acceptance of 6-aminohexanoate as substrate (formation of L-alanine from pyruvate) [1] | ω-transaminase activity: acceptance of adipate semialdehyde as substrate (formation of pyruvate from L-alanine) [2] | carboxylate reductase activity: acceptance of adipate semialdehyde as substrate (consumption of NADPH, absorbance at 340 nm) [3] |
| --- | --- | --- | --- |
| SEQ ID NO 11: Rhodobacter sphaeroides ω-transaminase, N-terminal HIS tagged | accepted 6-aminohexanote as substrate | accepted adipate semialdehyde as substrate |  |
| SEQ ID NO 8: Chromobacterium violaceum ω-transaminase, N-terminal HIS tagged (protein, listed as Chromobacterium violaceum, N-terminal His tag, Chromobacterium violaceum ω-transaminase, N-terminal HIS tagged) MQKQRTTSQWRELDAAHHLHPFTDTASLNQAGARVMTRGEGVYLWDSEGNKIIDGMAGLWCVNVGYGRKDFAEAARRQMEELPFYNTFFKTTHPAVVELSSLLAEVTPAGFDRVFYTNSGSESVDTMIRMVRRYWDVQGKPEKKTLIGRWNGYHGSTIGGASLGGMKYMHEQGDLPIPGMAHIEQPWWYKHGKDMTPDEFGVVAARWLEEKILEIGADKVAAFVGEPIQGAGGVIVPPATYWPEIERICRKYDVLLVADEVICGFGRTGEWFGHQHFGFQPDLFTAAKGLSSGYLPIGAVFVGKRVAEGLIAGGDFNHGFTYSGHPVCAAVAHANVAALRDEGIVQRVKDDIGPYMQKRWRETFSRFEHVDDVRGVGMVQAFTLVKNKAKRELFPDFGEIGTLCRDIFFRNNLIMRACGDHIVSAPPLVMTRAEVDEMLAVAERCLEEFEQTLKARGLA | accepted 6-aminohexanote as substrate | accepted adipate semialdehyde as substrate |  |
| SEQ ID NO 13: Vibrio fluvialis ω-transaminase, N-terminal HIS tagged (protein, listed as Vibrio fluvialis, N-terminal His tag, Vibrio fluvialis ω-transaminase, N-terminal HIS tagged) MNKPQSWEARAETYSLYGFTDMPSLHQRGTVVVTHGEGPYIVDVNGRRYLDANSGLWNMVAGFDHKGLIDAAKAQYERFPGYHAFFGRMSDQTVMLSEKLVEVSPFDSGRVFYTNSGSEANDTMVKMLWFLHAAEGKPQKRKILTRWNAYHGVTAVSASMTGKPYNSVFGLPLPGFVHLTCPHYWRYGEEGETEEQFVARLARELEETIQREGADTIAGFFAEPVMGAGGVIPPAKGYFQAILPILRKYDIPVISDEVICGFGRTGNTWGCVTYDFTPDAIISSKNLTAGFFPMGAVILGPELSKRLETAIEAIEEFPHGFTASGHPVGCAIALKAIDVVMNEGLAENVRRLAPRFEERLKHIAERPNIGEYRGIGFMWALEAVKDKASKTPFDGNLSVSERIANTCTDLGLICRPLGQSVVLCPPFILTEAQMDEMFDKLEKALDKVFAEVA | accepted 6-aminohexanote as substrate | accepted adipate semialdehyde as substrate |  |
| SEQ ID NO 9: Pseudomonas aeruginosa ω-transaminase, N-terminal HIS tagged (protein, listed as Pseudomonas aeruginosa, N-terminal His tag, Pseudomonas aeruginosa ω-transaminase, N-terminal HIS tagged) MNARLHATSPLGDADLVRADQAHYMHGYHVFDDHRVNGSLNIAAGDGAYIYDTAGNRYLDAVGGMWCTNIGLGREEMARTVAEQTRLLAYSNPFCDMANPRAIELCRKLAELAPGDLDHVFLTTGGSTAVDTAIRLMHYYQNCRGKRAKKHVITRINAYHGSTFLGMSLGGKSADRPAEFDFLDERIHHLACPYYYRAPEGLGEAEFLDGLVDEFERKILELGADRVGAFISEPVFGSGGVIVPPAGYHRRMWELCQRYDVLYISDEVVTSFGRLGHFFASQAVFGVQPDIILTAKGLTSGYQPLGACIFSRRIWEVIAEPDKGRCFSHGFTYSGHPVACAAALKNIEIIEREGLLAHADEVGRYFEERLQSLRDLPIVGDVRGMRFMACVEFVADKASKALFPESLNIGEWVHLRAQKRGLLVRPIVHLNVMSPPLILTREQVDTVVRVLRESIEETVEDLVRAGHR |  | accepted adipate semialdehyde as substrate |  |
| SEQ ID NO 10: Pseudomonas syringae ω-transaminase, N-terminal HIS tagged (protein, listed as Pseudomonas syringae, N-terminal His tag, Pseudomonas syringae ω-transaminase, N-terminal HIS tagged) MSANNPQTLEWQALSSEHHLAPFSDYKQLKEKGPRIITRAEGVYLWDSEGNKILDGMSGLWCVAIGYGREELADAASKQMRELPYYNLFFQTAHPPVLELAKAISDIAPEGMNHVFFTGSGSEGNDTMLRMVRHYWALKGQPNKKTIISRVNGYHGSTVAGASLGGMTYMHEQGDLPIPGVVHIPQPYWFGEGGDMTPDEFGIWAAEQLEKKILELGVENVGAFIAEPIQGAGGVIVPPDSYWPKIKEILSRYDILFAADEVICGFGRTSEWFGSDFYGLRPDMMTIAKGLTSGYVPMGGLIVRDEIVAVLNEGGDFNHGFTYSGHPVAAAVALENIRILREEKIVERVRSETAPYLQKRLRELSDHPLVGEVRGVGLLGAIELVKDKTTRERYTDKGAGMICRTFCFDNGLIMRAVGDTMIIAPPLVISFAQIDELVEKARTCLDLTLAVLQG | accepted 6-aminohexanote as substrate | accepted adipate semialdehyde as substrate |  |
| SEQ ID NO 7: Segniliparus rotundus carboxylate reductase, N-terminal HIS tagged (protein, listed as Segniliparus rotundus, N-terminal His tag, Segniliparus rotundus carboxylate reductase, N-terminal HIS tagged) MTQSHTQGPQASAAHSRLARRAAELLATDPQAAATLPDPEVVRQATRPGLRLAERVDAILSGYADRPALGQRSFQTVKDPITGRSSVELLPTFDTITYRELRERATAIASDLAHHPQAPAKPGDFLASIGFISVDYVAIDIAGVFAGLTAVPLQTGATLATLTAITAETAPTLFAASIEHLPTAVDAVLATPSVRRLLVFDYRAGSDEDREAVEAAKRKIADAGSSVLVDVLDEVIARGKSAPKAPLPPATDAGDDSLSLLIYTSGSTGTPKGAMYPERNVAHFWGGVWAAAFDEDAAPPVPAINITFLPLSHVASRLSLMPTLARGGLMHFVAKSDLSTLFEDLKLARPTNLFLVPRVVEMLYQHYQSELDRRGVQDGTREAEAVKDDLRTGLLGGRILTAGFGSAPLSAELAGFIESLLQIHLVDGYGSTEAGPVWRDGYLVKPPVTDYKLIDVPELGYFSTDSPHPRGELAIKTQTILPGYYKRPETTAEVFDEDGFYLTGDVVAQIGPEQFAYVDRRKNVLKLSQGEFVTLAKLEAAYSSSPLVRQLFVYGSSERSYLLAVIVPTPDALKKFGVGEAAKAALGESLQKIARDEGLQSYEVPRDFIIETDPFTVENGLLSDARKSLRPKLKEHYGERLEAMYKELADGQANELRDIRRGVQQRPTLETVRRAAAAMLGASAAEIKPDAHFTDLGGDSLSALTFSNFLHDLFEVDVPVGVIVSAANTLGSVAEHIDAQLAGGRARPTFATVHGKGSTTIKASDLTLDKFIDEQTLEAAKHLPKPADPPRTVLLTGANGWLGRFLALEWLERLAPAGGKLITIVRGKDAAQAKARLDAAYESGDPKLAGHYQDLAATTLEVLAGDFSEPRLGLDEATWNRLADEVDFISHPGALVNHVLPYNQLFGPNVAGVAEIIKLAITTRIKPVTYLSTVAVAAGVEPSALDEDGDIRTVSAERSVDEGYANGYGNSKWGGEVLLREAHDRTGLPVRVFRSDMILAHQKYTGQVNATDQFTRLVQSLLATGLAPKSFYELDAQGNRQRAHYDGIPVDFTAESITTLGGDGLEGYRSYNVFNPHRDGVGLDEFVDWLIEAGHPITRIDDYDQWLSRFETSLRGLPESKRQASVLPLLHAFARPGPAVDGSPFRNTVFRTDVQKAKIGAEHDIPHLGKALVLKYADDIKQLGLL |  |  | accepted adipate semialdehyde as substrate |

Reference: US9745607B2, “Methods of producing 6-carbon chemicals using 2,6-diaminopimelate as precursor to 2-aminopimelate” (INVISTA North America S.á r.l., priority 2014, dated 2017)
